Experiments:
[1] = target: T1, KSRP KH1-KH4 (referred to as KSRP) (Homo sapiens, UniProt Q92945 68-525); assay: NMR 13C-1H
T1 sequence: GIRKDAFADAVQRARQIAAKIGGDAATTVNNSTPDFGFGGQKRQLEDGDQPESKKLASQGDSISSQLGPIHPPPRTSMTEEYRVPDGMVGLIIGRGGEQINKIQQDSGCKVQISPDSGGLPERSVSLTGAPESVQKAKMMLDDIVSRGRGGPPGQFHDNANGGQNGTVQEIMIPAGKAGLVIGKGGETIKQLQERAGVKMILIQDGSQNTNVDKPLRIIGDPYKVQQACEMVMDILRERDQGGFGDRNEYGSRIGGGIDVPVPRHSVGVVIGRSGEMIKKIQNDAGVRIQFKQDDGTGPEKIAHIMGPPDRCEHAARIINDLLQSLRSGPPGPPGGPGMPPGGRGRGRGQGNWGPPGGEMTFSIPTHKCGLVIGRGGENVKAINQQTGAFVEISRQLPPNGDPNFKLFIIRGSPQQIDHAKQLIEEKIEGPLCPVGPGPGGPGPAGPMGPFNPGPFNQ

KSRP KH3 [2] = target: T2, KSRP KH3 (Homo sapiens, UniProt Q92945 322-386); assay: NMR structure, NMR titration, ITC
T2 sequence: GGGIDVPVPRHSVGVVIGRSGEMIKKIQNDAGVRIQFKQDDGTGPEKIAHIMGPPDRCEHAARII

KSRP KH3 [3] = target: T2, KSRP KH3; assay: NMR titration

AGGGU (ssRNA)
binding result [1]: binds
binding result (KSRP KH3 [2]): binds

AGUGU (ssRNA) [AGGGU G3U]
binding result (KSRP KH3 [3]): binds

AGAGU (ssRNA) [AGGGU G3A]
binding result (KSRP KH3 [3]): binds
